According to PMC6270756:

Molecular target: Nucleoside 2'-deoxyribosyltransferase from Bacillus psychrosaccharolyticus CECT 4074 (Bacillus psychrosaccharolyticus)
Assay: SEC; pure BpNDT on Sepharose 12 10/300 GL column (GE Healthcare); native mass estimated

Substance: Nucleoside 2'-deoxyribosyltransferase from Bacillus psychrosaccharolyticus CECT 4074 (enzyme)
- stoichiometry N: 6
